Assay results published in paper PMC12312913 (2025).

T1: J protein (bacteriophage, UniProt P0DXX7)
T1 chain: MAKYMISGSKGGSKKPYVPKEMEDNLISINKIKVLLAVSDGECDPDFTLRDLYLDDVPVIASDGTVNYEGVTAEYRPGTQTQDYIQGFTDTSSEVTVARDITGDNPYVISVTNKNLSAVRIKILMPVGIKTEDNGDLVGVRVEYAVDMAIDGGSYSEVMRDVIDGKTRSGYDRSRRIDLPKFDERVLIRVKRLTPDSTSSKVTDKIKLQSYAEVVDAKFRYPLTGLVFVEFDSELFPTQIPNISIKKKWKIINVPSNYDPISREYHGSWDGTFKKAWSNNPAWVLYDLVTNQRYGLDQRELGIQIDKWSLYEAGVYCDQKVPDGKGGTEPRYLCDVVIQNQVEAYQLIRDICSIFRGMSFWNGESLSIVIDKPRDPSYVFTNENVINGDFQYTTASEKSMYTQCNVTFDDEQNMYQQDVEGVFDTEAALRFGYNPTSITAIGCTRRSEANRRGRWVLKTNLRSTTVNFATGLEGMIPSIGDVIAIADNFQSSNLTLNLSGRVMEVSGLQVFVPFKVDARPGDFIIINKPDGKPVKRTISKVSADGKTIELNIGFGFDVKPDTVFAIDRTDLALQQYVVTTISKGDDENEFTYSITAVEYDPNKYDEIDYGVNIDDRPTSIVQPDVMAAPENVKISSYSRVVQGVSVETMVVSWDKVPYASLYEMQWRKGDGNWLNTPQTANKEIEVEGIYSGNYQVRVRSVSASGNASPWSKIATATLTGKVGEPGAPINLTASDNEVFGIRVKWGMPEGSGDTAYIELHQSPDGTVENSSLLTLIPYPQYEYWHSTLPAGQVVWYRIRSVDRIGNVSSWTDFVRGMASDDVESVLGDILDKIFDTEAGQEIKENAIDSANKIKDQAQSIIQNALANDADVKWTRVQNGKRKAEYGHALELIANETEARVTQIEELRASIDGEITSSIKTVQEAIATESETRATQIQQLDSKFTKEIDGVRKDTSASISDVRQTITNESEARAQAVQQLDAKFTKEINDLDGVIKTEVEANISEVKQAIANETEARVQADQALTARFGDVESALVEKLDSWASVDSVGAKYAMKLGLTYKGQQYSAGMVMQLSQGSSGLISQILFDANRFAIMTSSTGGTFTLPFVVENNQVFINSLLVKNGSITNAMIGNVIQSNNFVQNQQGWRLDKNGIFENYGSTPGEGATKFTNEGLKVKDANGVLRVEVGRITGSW

B1: OmpX fused to TF and His tag (receptor)
chain: MKKIACLSALAAVLAFSAGTAVAATSTVTGGYAQSDAQGVANKMSGFNLKYRYEQDDNPLGVIGSFTYTEKDRTNGAGDYNKGQYYGITAGPAYRLNDWASIYGVVGVGYGKFQTTDYPTYKHDTSDYGFSYGAGLQFNPMENVALDFSYEQSRIRSVDVGTWIAGVGYRF
B2: OmpX (protein)
chain: ATSTVTGGYAQSDAQGQMNKMGGFNLKYRYEEDNSPLGVIGSFTYTEKSRTASSGDYNKNQYYGITAGPAYRINDWASIYGVVGVGYGKFQTTEYPTYKHDTSDYGFSYGAGLQFNPMENVALDFSYEQSRIRSVDVGTWIAGVGYRF
B3: BtuB (protein)
chain: QDTSPDTLVVTANRFQQPRSAVLAPVTIVTRQDIERWQSTSVNDVLRRLPGVDIAQSGGAGQNSSIFIRGTNSSHVLVLIDGVRLNLAGVSGSADLSQFPVSLVQRIEYIRGPRSAIYGSDAIGGVVNIITTRDNPGTELTAGWGSNSYQNYDISTQQQLGENTRATLIGDYEYTKGFDVVAKGGTGMQAQPDRDGFLSKTLYGALEHTFSDRWSGFVRGYGYDNRTDYDAYYSPGSPLIDTRKLYSQSWDAGLRFNGERIQSQLVSSYSHSKDYNYDPHYGRYDTSATLDEMKQYNVQWTNSVVVGHGNVGAGVDWQKQTTTPGTGYVPEGYDQRNTGVYLTGLQQLGDFTLEAAARSDDNSQFGRHGTWQTSAGWEFIEGYRFIASYGTSYKAPNLGQLYGYYGNPNLNPEKSKQWEGAFEGLTAGVSWRISGYRNDINDMIDYDDHLQKYYNEGKARIKGIEATANFDTGPLTHTVSYDYVDARNAITDTPLPRRSKQMAKYQLDWDVYDFDWGVTYQYLGSRYDSDYSAYPYRTVKMGGVSLWDLTVAYPVTSHLTVRGKIANLFDKDYETVYGYQTAGREYTLSGSYTF

Key:
[1] = target: Gifsy-1 central tail tip J protein with Flag tag (phage Gifsy-1 of Salmonella Typhimurium); assay: BLI
[2] = target: T1, J protein; assay: BLI

Binder	koff [1] [s⁻¹]	Kd [2] [nM]
B1	0.000275	–
B2	–	70
B3	–	0.00597
